Reference: patent US6140129

System: FLP recombinase (Saccharomyces cerevisiae (2-micron plasmid))
Assay: cell_activity

Substance	activity (Tet^R colonies per trial) (no chromosomal FRT, 4 experiments)	activity (colonies per plate) (non-target strain with IPTG, 0 without)	activity (colonies per plate) (lambda FRT36 integration at lacZ-FRT with IPTG (39 without), lacY-FRT 206 with and 247 without)
E. coli chromosome without FRT	0	1	
minimal wild-type FRT (from pJFS36)			139
